Data from patent publication US10428327B2, “Compositions and methods for enhancing homologous recombination” (LIFE TECHNOLOGIES CORPORATION, priority 2016, dated 2019).
Oligonucleotides are written 5' to 3', each unit as a sugar letter and its base; * is a phosphorothioate linkage, no mark a phosphodiester; rarer units and linkages stand in square brackets, end groups in braces. Plain capitals give the bases only. d = 2'-deoxy (DNA)

T1: DNA ligase IV (Homo sapiens, UniProt P49917)
T1 sequence (P49917 1-911): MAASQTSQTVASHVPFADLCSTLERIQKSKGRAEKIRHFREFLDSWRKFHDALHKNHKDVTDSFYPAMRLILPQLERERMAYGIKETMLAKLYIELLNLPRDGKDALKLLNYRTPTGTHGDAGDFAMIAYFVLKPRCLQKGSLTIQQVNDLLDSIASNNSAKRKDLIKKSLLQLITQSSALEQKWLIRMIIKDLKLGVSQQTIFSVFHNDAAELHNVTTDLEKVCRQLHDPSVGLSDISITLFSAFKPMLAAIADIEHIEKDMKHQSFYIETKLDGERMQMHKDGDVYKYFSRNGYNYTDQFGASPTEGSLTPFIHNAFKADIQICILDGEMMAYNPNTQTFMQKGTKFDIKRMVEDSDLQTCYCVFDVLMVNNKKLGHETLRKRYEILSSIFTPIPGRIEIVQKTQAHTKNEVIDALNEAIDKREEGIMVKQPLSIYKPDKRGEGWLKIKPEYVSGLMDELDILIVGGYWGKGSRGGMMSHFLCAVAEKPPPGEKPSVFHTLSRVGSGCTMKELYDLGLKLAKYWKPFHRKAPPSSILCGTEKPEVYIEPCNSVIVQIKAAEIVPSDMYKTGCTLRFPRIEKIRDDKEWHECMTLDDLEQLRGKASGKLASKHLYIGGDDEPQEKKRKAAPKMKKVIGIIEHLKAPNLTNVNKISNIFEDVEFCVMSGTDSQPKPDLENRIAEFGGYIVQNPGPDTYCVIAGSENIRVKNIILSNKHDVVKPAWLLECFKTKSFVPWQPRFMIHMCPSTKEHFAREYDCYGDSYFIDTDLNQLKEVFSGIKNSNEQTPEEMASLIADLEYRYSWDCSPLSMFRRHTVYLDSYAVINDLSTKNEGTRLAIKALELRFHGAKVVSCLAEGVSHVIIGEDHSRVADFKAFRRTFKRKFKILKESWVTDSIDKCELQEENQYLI

B1: 15-5′: dsDNA donor with 15 nucleotide 5′ overhangs, annealed SEQ ID 81 and 82 (nucleic acid)
chain 1: dG*dT*dGdAdCdCdAdCdCdCdTdGdAdCdCdGdAdCdTdAdCdAdAdAdGdAdCdGdAdTdGdAdCdGdAdCdAdAdGdAdAdTdTdC*dT*dT
chain 2: dG*dC*dAdCdTdGdCdAdCdGdCdCdGdTdAdAdGdAdAdTdTdCdTdTdGdTdCdGdTdCdAdTdCdGdTdCdTdTdTdGdTdAdG*dT*dC
modifications: Two annealed DNA oligonucleotides with 5' overhangs, further chemistry not fully specified
B2: 6-3′: dsDNA donor with 6 nucleotide 3′ overhangs, annealed SEQ ID 79 and 80 (nucleic acid)
chain 1: GACTACAAAGACGATGACGACAAGAATTCTTACGGCG
chain 2: AAGAATTCTTGTCGTCATCGTCTTTGTAGTCGGTCAG
modifications: chemistry not fully specified
B3: blunt: blunt-end dsDNA donor, FLAG tag plus EcoRI site, annealed SEQ ID 75 and 76 (nucleic acid)
chain 1: dG*dA*dCdTdAdCdAdAdAdGdAdCdGdAdTdGdAdCdGdAdCdAdAdGdAdAdTdTdC*dT*dT
chain 2: dA*dA*dGdAdAdTdTdCdTdTdGdTdCdGdTdCdAdTdCdGdTdCdTdTdTdGdTdAdG*dT*dC
modifications: annealed double-stranded DNA donor, further chemistry not fully specified
B4: 6-5′: dsDNA donor with 6 nucleotide 5′ overhangs, annealed SEQ ID 77 and 78 (nucleic acid)
chain 1: dC*dT*dGdAdCdCdGdAdCdTdAdCdAdAdAdGdAdCdGdAdTdGdAdCdGdAdCdAdAdGdAdAdTdTdC*dT*dT
chain 2: dC*dG*dCdCdGdTdAdAdGdAdAdTdTdCdTdTdGdTdCdGdTdCdAdTdCdGdTdCdTdTdTdGdTdAdG*dT*dC
modifications: Two annealed DNA oligonucleotides with 5' overhangs, further chemistry not fully specified
B5: 30-5′: dsDNA donor with 30 nucleotide 5′ overhangs, annealed SEQ ID 85 and 86 (nucleic acid)
chain 1: dG*dT*dGdCdCdCdTdGdGdCdCdCdAdCdCdCdTdCdGdTdGdAdCdCdAdCdCdCdTdGdAdCdCdGdAdCdTdAdCdAdAdAdGdAdCdGdAdTdGdAdCdGdAdCdAdAdGdAdAdTdTdC*dT*dT
chain 2: dG*dT*dGdGdTdCdGdGdGdGdTdAdGdCdGdGdCdTdGdAdAdGdCdAdCdTdGdCdAdCdGdCdCdGdTdAdAdGdAdAdTdTdCdTdTdGdTdCdGdTdCdAdTdCdGdTdCdTdTdTdGdTdAdG*dT*dC
modifications: Two annealed DNA oligonucleotides with 5' overhangs, further chemistry not fully specified
B6: 15-3′: dsDNA donor with 15 nucleotide 3′ overhangs, annealed SEQ ID 83 and 84 (nucleic acid)
chain 1: dG*dA*dCdTdAdCdAdAdAdGdAdCdGdAdTdGdAdCdGdAdCdAdAdGdAdAdTdTdCdTdTdAdCdGdGdCdGdTdGdCdAdGdT*dG*dC
chain 2: dA*dA*dGdAdAdTdTdCdTdTdGdTdCdGdTdCdAdTdCdGdTdCdTdTdTdGdTdAdGdTdCdGdGdTdCdAdGdGdGdTdGdGdTdC*dA*dC
modifications: further chemistry not fully specified

What was measured:
rabbit embryos = details: in vitro and in vivo; cited from earlier work
HEK293T cells = details: synchronization at M phase prior to nucleofection; cited from earlier work
hESCs = details: synchronization at M phase prior to nucleofection; cited from earlier work
DNA ligase IV = molecular target: T1, DNA ligase IV; details: cited from earlier work
[1] = test system: eBFP locus in HEK293 cells expressing eBFP; assay: Genomic cleavage and detection assay at eBFP locus after Cas9 RNP and FLAG/EcoRI donor; assay type: cell-based; details: sequential delivery, 48 hours post transfection
Source text: (§1) FIG. 11. Insertion of a FLAG tag along with an EcoRI site using dsDNA donor with single-stranded overhangs. (A) Various donor DNA molecules containing a 30-base FLAG tag along with an EcoRI site were designed and synthesized, including single-stranded DNA donor (ssDNA), blunt-end dsDNA donor (blunt), dsDNA donor with 5′ overhang (5′), dsDNA donor with 3′ overhang (3′). The length of overhangs varied from 6 nucleotides (6), 15 nucleotides (15) to 30 nucleotides (30). The 3′ and 5′ ends of the oligonucleotides harbored two consecutive phosphorothioate-modified bases (Table 4). The short dsDNA donors with and without overhangs were prepared by annealing two short DNA oligonucleotides. […] At 48 hours post transfection, the eBFP locus was PCR-amplified. The resulting PCR fragments were analyzed by the genomic cleavage and detection assays to determine the percentage of Indel or subjected to restriction digestion with EcoRI to determine the percentage of digestion. (B) Length of 3′ overhang. […] Alternatively, a dsDNA donor with 30-base 3′ overhang but without phosphorothioate modification (30-3′n) was used. The percentage of digestion with EcoRI was determined at 48 hours post transfection. (C) Dose effect. […] The eBFP loci were PCR-amplified. The resulting PCR fragments were analyzed by EcoRI digest. (D) Sequencing verification. The PCR fragments were cloned into E. coli and 192 clones were randomly picked for sequencing. The relative percentage of wild type (wt), NHEJ, and HDR clones derived from either ssDNA donor (ssDNA) or dsDNA with 3′ overhangs (3′ overhang) was plotted. The white rectangles represented the population of clones that contained the insert but with a point mutation. Examples of edited clones were shown in (E) (not representing the actual percentages of NHEJ and HDR). The underlined sequences represented the FLAG tag along with an RI site. FIG. 11 discloses SEQ ID NOs: 15-24, respectively, from top to bottom.
The genomic cleavage efficiency was measured by GENEART® Genomic Cleavage Detection kit according to manufacturer's instructions. The primer sequences for PCR amplification of each genomic locus are described in Table 4. Cells were analyzed at 48 to 72 hours post transfection. The cleavage efficiencies were calculated based on the relative agarose gel band intensity, which were quantified using an […]® gel documentation system running […]®, Version 3.4.0.0. ProteinSimple (San Jose, Calif., USA).
To extend this concept, we hypothesized that a dsDNA donor harboring single-stranded overhangs would facilitate HDR to higher levels than with blunt ends. To test this hypothesis, we designed and generated a series of donor molecules with either blunt end, 5′ end protrusion or 3′ end protrusion by annealing two small single-stranded oligonucleotides. A single-stranded DNA donor was used as a control. The 5′ and 3′ ends of oligonucleotides were protected with two consecutive phosphorothioate-modified bases (Table 3). For proof of concept, we inserted a 30 nucleotide FLAG epitope tag along with an EcoRI site into the BFP gene stably expressed in HEK293 cells. The gRNA was designed to target the top DNA strand. The length of single-stranded overhangs varied from 6 nucleotides to 30 nucleotides. The oligonucleotides were denatured and re-annealed prior to transfection forming the structures described in FIG. 11A. […] Co-delivery of Cas9 RNPs and donor DNA gave lower HDR efficiencies. At 48 hours post transfection, the genomic locus was PCR-amplified and the editing efficiencies were determined using a GCD assay. […] When the PCR fragments were subjected to restriction digestion with EcoRI to identify properly inserted constructs, only the donor DNA molecules containing 30-base single-stranded overhangs at the 3′ ends produced the expected digested fragments (30-3′ in FIG. 11, panel A). […]

[2] = test system: eBFP locus in HEK293 cells expressing eBFP; assay: EcoRI restriction digestion of PCR-amplified eBFP locus (FLAG tag/EcoRI insertion); assay type: cell-based; details: 48 hours
Source text: as §1
To create homologous recombination (HR) assays, a series of gRNAs flanking the insertion site within the EmGFP gene were designed and synthesized (Table 4). Each individual gRNA was combined with GENEART™ […]™ Cas9 Nuclease to form the Cas9 protein/gRNA ribonucleoprotein complexes (Cas9 RNPs). The Cas9 RNPs were then used to transfect cells via NEON® electroporation. The genomic cleavage efficiency was then evaluated using the GENEART® Genomic Cleavage Detection kit at 48 hours post transfection. The gRNAs with highest editing efficiencies and also in close proximity to the insertion site were selected for the subsequent HR assays. For donor design of a single-stranded oligonucleotide, typically the mutation site was positioned at the center flanked by 30 to 50 nucleotides on each side. For asymmetric donor design, 30 nucleotides were placed on either the left or right arm and then 50 or 67 nucleotides on the right or left arm respectively, in both PAM and non-PAM strands. For design of a dsDNA oligonucleotide with single-stranded overhangs, the insertion element was overlapped in the center flanked by various lengths of ssDNA oligonucleotide on each side. By annealing two single-stranded oligonucleotides at 95° C. for 3 minutes, dsDNA donor molecules with either a 5′ protrusion or a 3′ protrusion were generated. To measure homologous recombination efficiency, the donor DNA was either co-transfected with Cas9 RNPs or delivered sequentially into cells via electroporation. At 48 hours post transfection, the gain of EmGFP function in reporter cell lines was determined by flow cytometric analysis with an Attune® NxT Acoustic Focusing Cytometer (Thermo Fisher Scientific). Alternatively, the genomic loci were PCR-amplified using the corresponding primers and then subjected to GENEART® Genomic Cleavage Detection assay or restriction digestion. The resulting PCR products were also subjected to TOPO cloning. Typically, 96 colonies were randomly picked for sequencing. […]

[3] = FIG. 11A, donor configurations, sequential delivery

| Molecule | Avg (% Indels) [1] | Avg (% digestion) [2, 3] | also measured |
| --- | --- | --- | --- |
| O=C(Nc1ccc(Br)cc1)c1ccc(Br)c(S(=O)(=O)NCc2ccccc2)c1 [RS-1] |  |  | increased knock-in efficiency (rabbit embryos): 2-5 fold |
| COC(=O)Nc1nc2ccc(C(=O)c3cccs3)cc2[nH]1 [nocodazole] |  |  | HDR (HEK293T cells): up to 38%; HDR (hESCs): ≤ 1.6% |
| Scr7 |  |  | increase in HDR efficiency (DNA ligase IV): up to 19 fold |
| B1 | 69.50% | 0.00% |  |
| B2 | 78.50% | 0.00% |  |
| B3 | 68.50% | 0.00% |  |
| B4 | 56.50% | 0.00% |  |
| B5 | 80.00% | 1.00% |  |
| B6 | 81.00% | 0.50% | Avg (% digestion) ([2]; FIG. 11B, length of 3′ overhang): 0.8% |
